According to patent US20220306762A1 (CRYSTAL BIOSCIENCE, published 2022):
Changes are numbered by the printed parent chain.

T1: His-tagged mouse CD38 (ACRO Biosystems #CD8-M5223) (mouse, UniProt P56528 45-304)
T1 construct: bought recombinant protein with His tag; also called Murine
T1 sequence (looked up): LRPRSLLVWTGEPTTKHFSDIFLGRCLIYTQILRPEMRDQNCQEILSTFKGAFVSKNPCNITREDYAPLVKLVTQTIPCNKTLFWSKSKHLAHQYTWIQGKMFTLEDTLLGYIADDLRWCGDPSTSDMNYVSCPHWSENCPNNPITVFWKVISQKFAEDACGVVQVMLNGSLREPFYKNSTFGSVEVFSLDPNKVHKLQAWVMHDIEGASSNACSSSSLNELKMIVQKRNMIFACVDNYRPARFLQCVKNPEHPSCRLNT

T2: murine CD38 on transiently transfected Expi293 cells (Origene MC208001) (murine, UniProt P56528 1-304)
T2 construct: whole, on cells; also called Murine (FACs)
T2 sequence (looked up): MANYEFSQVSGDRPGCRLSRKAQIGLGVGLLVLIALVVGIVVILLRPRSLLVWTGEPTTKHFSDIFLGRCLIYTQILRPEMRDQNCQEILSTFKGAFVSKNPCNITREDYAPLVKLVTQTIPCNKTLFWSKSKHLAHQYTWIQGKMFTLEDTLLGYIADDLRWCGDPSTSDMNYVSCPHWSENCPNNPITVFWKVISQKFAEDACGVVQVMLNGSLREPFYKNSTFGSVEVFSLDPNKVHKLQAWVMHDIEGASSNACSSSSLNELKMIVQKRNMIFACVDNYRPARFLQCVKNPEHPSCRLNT

B1: 40769p1.1.G12 (scFv, V domains shown)
VH: EVQLLESGGGLVQPGGSLRLSCAASGFTFDDYVMSWVRQAPGKGLEWVSEISESDGSNKYYADSVKGRFIISRDNSKNTLYLQMNSLRAEDTAVYYCARLEPEKYYGMDVWGQGTTVTVSS
VL: QSVLTQPPSASGTPGQRVTISCSGSNSNIGNNLVSWYQQLPGTAPKLLIYRHDHRPSGVPDRFSGSKSGTSASLAISGLQSEDEADYYCATWDDSLNGRAFGGGTKLTVL
notes: tested as scFv-Fc supernatant
B2: 40566p1.A7 (scFv, V domains shown)
VH: RELVESGGGVVRPGESLRLSCAASGFTFDNYDMTWVRQAPGEGLEWVSFISSRGTFTYYTDSVRGRFTISRDNSKNTLYLEMNSLRAEDTAIYYCAKDSGEYYFFDYWGLGTLVTVSS
VL: EIVMTQSPATLSVSPGERATFSCRASQSVNSKLAWYQQKPGQAPRLLIYGASRRATGIPDRFSGSGSGTEFTLTISSLQSEDFAVYYCQQYYDWPPLTFGGGTKVEIK
notes: tested as scFv-Fc supernatant
B3: 40566p1.D2 (scFv, V domains shown)
VH: DVQLVESGGGVVRPGESLRLSCAASGFTFDNYDMTWVRQAPGEGLEWVSFISSRGTFTYYTDSVKGRFTISRDNSKNTLYLQMNSLRAEDTAIYYCTKDSGEYYFFDYWGLGTLVTVSS
VL: B2 VL
notes: tested as scFv-Fc supernatant
B4: 40566p1.B12 (scFv, V domains shown)
VH: B3 VH with T56I, T61A, T97A
VL: B2 VL
notes: tested as scFv-Fc supernatant
B5: 40566p1.B3 (scFv, V domains shown)
VH: B3 VH with K65R, Q82E, T97A
VL: B2 VL
notes: tested as scFv-Fc supernatant
B6: 40566p1.A8 (scFv, V domains shown)
VH: B3 VH with T97A
VL: B2 VL
notes: tested as scFv-Fc supernatant
B7: 40566p1.C1 (scFv, V domains shown)
VH: B3 VH
VL: B2 VL with I2T
notes: tested as scFv-Fc supernatant
B8: 40769p1.1.H1 (scFv, V domains shown)
VH: EVQLLESGGGLVQPGGSLRLSCAASGFTFSDYWMNWVRQAPGKGLEWVSTISSGGSMIYHADSVKGRFTISRDNSKNTLYLQMNSLRPEDTAVYYCAKDNWNDYYGMDVWGQGTTVTVSS
VL: QSVLTQPPSASGTPGQRVNISCSGSSSNIRYNYVYWYQQVPGTAPKLLIYKDDQRPSGVPDRFSGSKSGTSASLAISELQSEDEADYYCATWDGSLNARVFGGGTKLTVL
notes: tested as scFv-Fc supernatant
B9: 40596p1.H7 (scFv, V domains shown)
VH: EVQLLESGGGLVQPGGSLRLSCAASGFDFSTYAMTWVRQAPGKGLEWVAGNGWSGSFTYYADSVKGRFTVSRDNSKNTLYLQMNSLRAEDTAVYYCTRNPGFGEMDVWGQGTTVTVSS
VL: EIVLTQSPGTLRLSPGERATLSCRASQTVGTTLAWYQQKPGQAPRLLIHGASTRATDIPDRFSGSGSGTEFTLTISSLQSEDFADYYCQQYKSWPPLTFGGGTKVEIK
notes: tested as scFv-Fc supernatant
B10: 40769p1.1.H10 (scFv, V domains shown)
VH: EVQLLESGGGLVQPGGSLRLSCAAFGFTFSDYEMNWVRQAPGKGLEWVSSISITGSWTGYADSVKGRFTISRDNSKNTLYLQMNNLRAEDTAVYYCANYKSYYGMDVWGQGTTVTVSS
VL: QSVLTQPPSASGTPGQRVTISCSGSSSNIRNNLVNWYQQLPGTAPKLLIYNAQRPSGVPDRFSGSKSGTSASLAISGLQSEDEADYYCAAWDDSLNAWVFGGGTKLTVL
notes: tested as scFv-Fc supernatant
B11: 40566p1.G12 (scFv, V domains shown)
VH: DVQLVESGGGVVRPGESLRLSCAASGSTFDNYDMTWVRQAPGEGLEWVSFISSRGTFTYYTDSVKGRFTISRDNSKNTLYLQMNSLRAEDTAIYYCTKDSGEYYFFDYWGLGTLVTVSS
VL: B2 VL with G50D
notes: tested as scFv-Fc supernatant
B12: 40566p1.F1 (scFv, V domains shown)
VH: B3 VH
VL: B2 VL with I2T, S31G, G50D
notes: tested as scFv-Fc supernatant; also called 40566p1.Fl
B13: 40566p1.G9 (scFv, V domains shown)
VH: B3 VH with T61A, T97A
VL: B2 VL
notes: tested as scFv-Fc supernatant
B14: 40566p1.A9 (scFv, V domains shown)
VH: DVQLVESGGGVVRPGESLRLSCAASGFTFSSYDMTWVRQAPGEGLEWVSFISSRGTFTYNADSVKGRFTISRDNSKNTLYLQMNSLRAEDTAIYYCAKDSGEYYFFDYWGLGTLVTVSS
VL: B2 VL with T5M
notes: tested as scFv-Fc supernatant
B15: 40566p1.C11 (scFv, V domains shown)
VH: B3 VH
VL: B2 VL with M4L, A9G, V13L, F21L, S28T, N30G, Y49F, G50S, R53S, D60A
notes: tested as scFv-Fc supernatant
B16: 40566p1.A12 (scFv, V domains shown)
VH: B3 VH
VL: B2 VL with G50D
notes: tested as scFv-Fc supernatant; also called 40566p1.Al2
B17: 40566p1.D12 (scFv, V domains shown)
VH: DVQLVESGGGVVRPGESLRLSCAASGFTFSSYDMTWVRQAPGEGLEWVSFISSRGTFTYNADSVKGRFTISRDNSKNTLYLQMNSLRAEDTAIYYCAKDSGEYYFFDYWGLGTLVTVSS
VL: B2 VL
notes: tested as scFv-Fc supernatant

Molecular target: T3, His-tagged human CD38 (ACRO Biosystems cat #CD8-H5224) (human, UniProt P28907 43-300)
T3 construct: bought recombinant protein with His tag
Assay: SPR, captured scFv-Fc, His-CD38 analyte;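 note: SPR on a Carterra LSA, scFv-Fc captured by anti-human Fc on HC30M chip, His-tagged CD38 (human, mouse, cynomolgus) flowed as analyte in eight 1:2 steps from 400 nM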

Kd [nM] | Binder
1.88 | B1
202000 | B2
11.8 | B3
470000 | B4
43800 | B5
0.872 | B6
465 | B7
85.7 | B8
86.7 | B9
1.95 | B10

Molecular target: T1, His-tagged mouse CD38 (ACRO Biosystems …)
Assay: SPR, captured scFv-Fc, His-CD38 analyte;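 note: SPR on a Carterra LSA, scFv-Fc captured by anti-human Fc on HC30M chip, His-tagged CD38 (human, mouse, cynomolgus) flowed as analyte in eight 1:2 steps from 400 nM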

Kd [nM] | Binder
1.31 | B2
1.74 | B3
2.07 | B11
0.375 | B12
25.6 | B4
4.8 | B13
0.918 | B14
1.97 | B15
1.03 | B16
1.32 | B5
5.81 | B6
0.967 | B17
0.478 | B7
51.6 | B9

Molecular target: T4, His-tagged cynomolgus monkey CD38 (ACRO Biosystems cat #CD8-05223) (cynomolgus monkey, UniProt Q5VAN0 43-301)
T4 construct: bought recombinant protein with His tag
Assay: SPR, captured scFv-Fc, His-CD38 analyte;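 note: SPR on a Carterra LSA, scFv-Fc captured by anti-human Fc on HC30M chip, His-tagged CD38 (human, mouse, cynomolgus) flowed as analyte in eight 1:2 steps from 400 nM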

Kd [nM] | Binder
11.4 | B1
2.66 | B2
29.8 | B3
3880 | B12
5.68 | B5
59.5 | B8
114 | B9
2.85 | B10

Molecular target: T3, His-tagged human CD38 (ACRO Biosystems …)
Assay: ELISA, coated His-CD38

ELISA 1 ug/ml | Binder
1.45 | B1
1.99 | B2
1.96 | B3
1.58 | B11
1.83 | B12
1.72 | B4
1.82 | B13
1.87 | B14
1.87 | B15
1.98 | B16
1.89 | B5
1.87 | B6
1.98 | B17
1.92 | B7
1.86 | B8
1.94 | B9
1.7 | B10

Molecular target: T1, His-tagged mouse CD38 (ACRO Biosystems …)
Assay: ELISA, coated His-CD38

ELISA 1 ug/ml | Binder
0.056 | B1
2.12 | B2
1.74 | B3
1.65 | B11
2.17 | B12
1.62 | B4
1.93 | B13
2.02 | B14
1.6 | B15
1.99 | B16
1.93 | B5
1.9 | B6
1.83 | B17
1.86 | B7
0.049 | B8
0.048 | B10

Molecular target: T4, His-tagged cynomolgus monkey CD38 (ACRO …)
Assay: ELISA, coated His-CD38

ELISA 1 ug/ml | Binder
1.08 | B1
1.85 | B2
1.83 | B3
1.62 | B11
1.95 | B12
1.6 | B4
1.86 | B13
1.88 | B14
1.7 | B15
1.89 | B16
1.81 | B5
1.9 | B6
1.96 | B17
1.74 | B7
2.05 | B8
1.89 | B9
1.96 | B10

Molecular target: T5, human CD38 on transiently transfected Expi293 cells (Origene #SC321273) (human, UniProt P28907 1-300)
T5 construct: whole, on cells; also called Human (FACs)
Assay: flow cytometry, transfected Expi293 cells;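 note: antibody binding to Expi293 cells transiently expressing human or murine CD38, antibodies applied at 10 ug/ml for 60 min on ice, read by flow cytometry as percent gated cells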

FACs 10 ug/ml (percent gated) [%] | Binder
68.4 | B1
14.2 | B2
20.1 | B3
7.52 | B11
32 | B12
8.31 | B4
17.8 | B13
19.1 | B14
11.9 | B15
25.2 | B16
21.1 | B5
17.8 | B6
20.8 | B17
26.4 | B7
76.2 | B8
71.7 | B9
79 | B10

Molecular target: T2, murine CD38 on transiently transfected …
Assay: flow cytometry, transfected Expi293 cells;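 note: antibody binding to Expi293 cells transiently expressing human or murine CD38, antibodies applied at 10 ug/ml for 60 min on ice, read by flow cytometry as percent gated cells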

FACs 10 ug/ml (percent gated) [%] | Binder
0.16 | B1
72.8 | B2
71.2 | B3
68.5 | B11
76 | B12
57.7 | B4
70.7 | B13
75.9 | B14
64.5 | B15
72.6 | B16
74.1 | B5
70.8 | B6
74.8 | B17
75.3 | B7
3.13 | B8
62.8 | B9
0.12 | B10
